Measurements published in article PMC6017926, “CpG Methylation Changes G-Quadruplex Structures Derived from Gene Promoters and Interaction with VEGF and SP1”.

How the values were obtained:
GST-SP1 [1] = biological target: GST-SP1 (UniProt P08047); test: SPR; conditions: SPR VEGF165: DNA folded in 10 mM Tris-HCl, 100 mM KCl, pH 7.4, 25 °C, ELONA: DNA folded in TK (100 mM KCl) or 100 mM LiCl buffer, binding in TBS (10 mM …)
GST-SP1 [2] = biological target: GST-SP1 (UniProt P08047); test: ELONA; conditions: 5-methylcytosine at CpG (underlining lost in text; CpG C at 5, 10, 16); SPR VEGF165: DNA folded in 10 mM Tris-HCl, 100 mM KCl, pH 7.4, 25 °C; ELONA: DNA folded in TK (100 mM KCl) or 100 mM LiCl buffer, binding in TBS (10 mM …)
VEGF165 = VEGF165 (UniProt P15692-4 27-191); test: SPR; 100 mM K+; SPR VEGF165: DNA folded in 10 mM Tris-HCl, 100 mM KCl, pH 7.4, 25 °C; ELONA: DNA folded in TK (100 mM KCl) or 100 mM LiCl buffer, binding in TBS (10 mM Tris-HCl, 150 mM NaCl, 5 mM KCl), 90 µM ZnCl2, pH 7.3, RT; SPR GST-SP1: captured by anti-GST on CM5, single-cycle kinetics 10-160 nM DNA, running buffer not stated; conditions: chain copies: 2, label: 5' biotin for ELONA
Chain of VEGF165 (P15692 other isoform, or with tags, fused parts or gaps): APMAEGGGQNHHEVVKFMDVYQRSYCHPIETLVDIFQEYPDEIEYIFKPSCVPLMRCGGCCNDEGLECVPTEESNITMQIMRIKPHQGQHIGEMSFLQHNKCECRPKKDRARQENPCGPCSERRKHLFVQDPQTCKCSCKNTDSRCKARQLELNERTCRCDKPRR

Chain of GST-SP1 (P08047 whole entry): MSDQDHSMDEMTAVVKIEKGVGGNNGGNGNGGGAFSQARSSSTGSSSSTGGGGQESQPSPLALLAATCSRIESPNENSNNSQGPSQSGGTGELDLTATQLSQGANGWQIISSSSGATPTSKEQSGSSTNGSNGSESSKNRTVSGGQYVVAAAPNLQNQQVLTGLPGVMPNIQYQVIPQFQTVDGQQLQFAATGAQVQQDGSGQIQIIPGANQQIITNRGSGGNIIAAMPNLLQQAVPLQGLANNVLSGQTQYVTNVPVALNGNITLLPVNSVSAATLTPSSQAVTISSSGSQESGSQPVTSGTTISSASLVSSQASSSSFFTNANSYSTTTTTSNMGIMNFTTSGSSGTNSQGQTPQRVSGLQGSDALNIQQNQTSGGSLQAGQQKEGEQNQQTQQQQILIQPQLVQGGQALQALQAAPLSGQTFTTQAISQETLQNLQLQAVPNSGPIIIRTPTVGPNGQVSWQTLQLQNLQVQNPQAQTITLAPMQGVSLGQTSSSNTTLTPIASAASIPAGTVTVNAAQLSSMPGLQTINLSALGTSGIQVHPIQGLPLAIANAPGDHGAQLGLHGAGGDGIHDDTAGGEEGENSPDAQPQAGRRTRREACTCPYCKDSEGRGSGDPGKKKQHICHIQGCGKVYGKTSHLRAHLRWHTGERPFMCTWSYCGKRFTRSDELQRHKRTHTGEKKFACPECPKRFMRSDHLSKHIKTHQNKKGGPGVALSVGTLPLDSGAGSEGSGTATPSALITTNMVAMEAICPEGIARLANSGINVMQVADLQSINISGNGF

Molecule: CGGGCGCGGGAGGAAGGGGGCGGGAGC [BCL-2 G4 methylated]
- Kd (GST-SP1 [1]; 5-methylcytosine at CpG (underlining lost in text; CpG C at 1, 5, 7, 21)): 28 nM

Molecule: CGGGCGCGGGAGGAAGGGGGCGGGAGC [BCL-2 G4 unmethylated]
- Kd (GST-SP1 [1]): 12 nM

Molecule: CGGGGCGGGGCGGGGGCGGGGGCG [HRAS2 G4 methylated]
- Kd (GST-SP1 [1]; 5-methylcytosine at CpG (underlining lost in text; CpG C at 1, 6, 11, 17, 23)): 27 nM

Molecule: CGGGGCGGGGCGGGGGCGGGGGCG [HRAS2 G4 unmethylated]
- Kd (GST-SP1 [1]): 10 nM

Molecule: GGCGAGGAGGGGCGTGGCCGGC [c-KIT G4 methylated]
- Kd (GST-SP1 [1]; 5-methylcytosine at CpG (underlining lost in text; CpG C at 3, 13, 19)): 11 nM

Molecule: GGCGAGGAGGGGCGTGGCCGGC [c-KIT G4 unmethylated]
- Kd (GST-SP1 [1]): 16 nM

Molecule: GGGGCGGGCCGGGGGCGGGG [VEGF G4 methylated]
- binding signal (fold signal vs unmethylated) (GST-SP1 [2]): 1.5
- Kd (GST-SP1 [1]; 5-methylcytosine at CpG (underlining lost in text; CpG C at 5, 10, 16)): 11 nM

Molecule: GGGGCGGGCCGGGGGCGGGG [VEGF G4 unmethylated]
- Kd (GST-SP1 [1]): 14 nM

Molecule: TCGGGTTGCGGGCGCAGGGCACGGGCG [HRAS1 G4 methylated]
- Kd (GST-SP1 [1]; 5-methylcytosine at CpG (underlining lost in text; CpG C at 2, 9, 13, 22, 26)): 36 nM

Molecule: TCGGGTTGCGGGCGCAGGGCACGGGCG [HRAS1 G4 unmethylated]
- Kd (GST-SP1 [1]): 10 nM

B1: VEGF G4 methylated (structured_DNA)
DNA: GGGGCGGGCCGGGGGCGGGG
modifications: 5-methylcytosine at CpG (underlining lost in text; CpG C at 5, 10, 16)
- Kd (VEGF165; G4, altered topology): 25 ± 5.7 nM

B2: VEGF G4 unmethylated (structured_DNA)
DNA: GGGGCGGGCCGGGGGCGGGG
- Kd (VEGF165; G4, parallel in K+): 13 ± 0.43 nM
